For assay [1], the target named is gp41 of pNL4-3 (HIV-1 pNL4-3 (subtype B, CXCR4-tropic)).
Assay [2] addresses gp41 of mutant "G-I-A" (pNL-Bal with Valine to Alanine at position 38 of gp41) (HIV-1 clone BAL2 (subtype B, CCR5-tropic)).
Assay [3] addresses gp41 of mutant "D-I-A" (pNL-Bal with Glycine to Aspartic Acid at position 36 and Valine to Alanine at position 38 of gp41) (HIV-1 clone BAL2 (subtype B, CCR5-tropic)).
Assay [4] concerns the target gp41 of mutant "G-I-A" (pNL-Bal with Valine to Alanine at position 38 of gp41) (HIV-1 clone BAL2 (subtype B, CCR5-tropic)). This is another data set of the same source.

T20 (Enfuvirtide, Fuzeon) (peptide): in assay [1], the IC50 (nM), inhibition of viral replication, deCIPhR cell to cell infection worked out at 76 nM and the IC50 (nM), inhibition of viral replication, virus to cell infection worked out at 48 nM. The substance also yielded a Resistance factor (IC50mut/IC50wt) IC50 fold increase in assay [2] of 13 fold. In assay [3], this substance yielded an IC50 (nM), inhibition of viral replication, deCIPhR of 2270 nM and a Rf (resistance factor, IC50 on mutant virus / IC50 on reference strain) of 227 fold. In assay [4], the IC50 (nM), inhibition of viral replication, deCIPhR came to 127 nM and the Rf (resistance factor, IC50 on mutant virus / IC50 on reference strain) stood at 12.7 fold.

The record behind these values is patent publication US20160313325A1.
